Measurements reported in publication PMC6695453, “Peptide translocation by the lysosomal ABC transporter TAPL is regulated by coupling efficiency and activation energy” (Scientific Reports, 2019).
Side chains are listed from the residue outwards. Ends that are not written are not given here.

What was measured:
[1] = system: Nc1nc2c(ncn2[C@@H]2O[C@H](COP(=O)(O)OP(=O)(O)OP(=O)(O)O)[C@@H](O)[C@H]2O)c(=O)[nH]1; test: purified protein, by the assay type; conditions: other: 68 °C, 10 min, 9-mer^FL peptide (30 µM), triplicates, SD
[2] = system: Nc1ncnc2c1ncn2[C@@H]1O[C@H](COP(=O)(O)OP(=O)(O)OP(=O)(O)O)[C@@H](O)[C@H]1O; test: purified protein, by the assay type; conditions: other: 68 °C, 10 min, 9-mer^FL peptide (30 µM), triplicates, SD
[3] = molecular target: T1, coreTAPL (core complex of the transporter associated with antigen processing-like, ABCB9) fused C-terminally … (human, UniProt Q9NP78 143-766); test: cell-based or functional assay
T1 sequence (looked up): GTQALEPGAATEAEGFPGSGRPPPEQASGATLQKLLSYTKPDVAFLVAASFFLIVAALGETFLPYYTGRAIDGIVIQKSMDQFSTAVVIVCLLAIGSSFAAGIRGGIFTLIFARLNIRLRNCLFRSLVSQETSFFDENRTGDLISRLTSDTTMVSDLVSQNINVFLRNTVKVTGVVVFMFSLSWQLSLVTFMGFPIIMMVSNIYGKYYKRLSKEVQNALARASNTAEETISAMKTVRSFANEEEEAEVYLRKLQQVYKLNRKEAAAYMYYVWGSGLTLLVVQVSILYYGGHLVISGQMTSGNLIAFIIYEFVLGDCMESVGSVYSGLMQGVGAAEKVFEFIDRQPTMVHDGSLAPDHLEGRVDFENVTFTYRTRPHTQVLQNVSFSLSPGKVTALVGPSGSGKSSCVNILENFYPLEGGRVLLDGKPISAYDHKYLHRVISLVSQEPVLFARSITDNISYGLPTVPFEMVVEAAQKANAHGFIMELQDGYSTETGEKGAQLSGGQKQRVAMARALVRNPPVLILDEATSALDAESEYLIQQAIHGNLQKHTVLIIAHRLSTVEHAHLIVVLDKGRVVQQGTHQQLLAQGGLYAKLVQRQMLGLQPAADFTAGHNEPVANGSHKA

[4] = molecular target: T1, coreTAPL (core complex of the …); test: MST; competition: 100 nM 9-mer^Atto-655 peptide and 10 µM TAPL with unlabeled competitor peptide (18-mer titrated; 9-mer at 4 mM); 22 °C; Ki fitted considering competitor depletion; conditions: both partners purified
[5] = molecular target: T2, coreTAPL (core complex of the transporter associated with antigen processing-like, ABCB9) fused C-terminally to mVenus (human) (UniProt Q9NP78)
T2 sequence: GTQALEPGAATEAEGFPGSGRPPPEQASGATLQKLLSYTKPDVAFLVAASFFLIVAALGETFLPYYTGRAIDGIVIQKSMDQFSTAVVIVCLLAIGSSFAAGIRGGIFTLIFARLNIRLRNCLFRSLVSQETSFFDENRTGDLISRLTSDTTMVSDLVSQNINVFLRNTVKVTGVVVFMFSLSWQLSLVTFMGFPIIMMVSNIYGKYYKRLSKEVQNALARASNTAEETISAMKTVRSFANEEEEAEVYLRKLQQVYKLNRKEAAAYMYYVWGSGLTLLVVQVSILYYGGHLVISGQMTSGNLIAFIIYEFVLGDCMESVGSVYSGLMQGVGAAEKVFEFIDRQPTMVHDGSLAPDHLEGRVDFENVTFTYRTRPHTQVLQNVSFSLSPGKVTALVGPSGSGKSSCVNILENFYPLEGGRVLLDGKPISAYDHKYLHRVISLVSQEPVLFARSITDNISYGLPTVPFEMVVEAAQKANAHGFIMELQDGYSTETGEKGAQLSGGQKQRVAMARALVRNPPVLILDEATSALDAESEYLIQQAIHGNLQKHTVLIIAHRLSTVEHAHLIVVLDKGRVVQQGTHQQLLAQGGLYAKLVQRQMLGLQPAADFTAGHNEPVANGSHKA

[6] = molecular target: T1, coreTAPL (core complex of the …); test: MST; 100 nM 9-mer^Atto-655 peptide with increasing TAPL concentrations; 20 mM HEPES, 140 mM NaCl, 0.05% DDM, 15% glycerol, pH 7.5; 22 °C; one-site binding model; conditions: both partners purified
[7] = molecular target: T2, coreTAPL (core complex of the transporter associated with antigen processing-like, ABCB9) fused C-terminally to mVenus (human); remark: listed apart in the source
[8] = molecular target: T2, coreTAPL (core complex of the transporter associated with antigen processing-like, ABCB9) fused C-terminally to mVenus (human); remark: listed apart in the source

In the case of TmrAB (Thermus thermophilus HB27), the Km ([1]; radioactive assay) is reported as 617 ± 144 µM, the kcat ([1]; radioactive assay) is reported as 2.47 ± 0.2 s⁻¹ and the Km ([1]; pH 7.5) is reported as 391 ± 136 µM. It also gave a kcat ([1]; pH 7.5) of 0.0167 ± 0.00167 s⁻¹, a Km ([2]; radioactive assay) of 661 ± 176 µM and a kcat ([2]; radioactive assay) of 2.25 ± 0.217 s⁻¹. The Km ([2]; pH 7.5) was 782 ± 213 µM and the kcat ([2]; pH 7.5) was 0.105 ± 0.01 s⁻¹.

B1: 18-mer peptide RRYQKSTELRRYQKSTEL (peptide)
peptide: RRYQKSTELRRYQKSTEL
notes: also called unlabeled 18-mer peptide; source: synthetic peptide (solid phase synthesis; Charité, Berlin)
With B1 the “IC50 of inhibition of ATP hydrolysis of reconstituted TAPL by peptide (malachite green assay, 3 mM ATP, 37 °C)” value [3] was 15 µM and the Ki [4] was 11.8 ± 3.6 µM.

With RYCK([Lys-Lys-Lys-Lys-Lys-Lys-Lys-Lys])STEL (also: octa-lysine attached by isopeptide bonds) [branched 16-mer peptide RYCK(K8)STEL] the IC50 of inhibition of ATP hydrolysis of reconstituted TAPL by peptide (malachite green assay, 3 mM ATP, 37 °C) [5] was 22 µM.

RYC(5‑iodoacetamidofluorescein)K([Lys-Lys-Lys-Lys-Lys-Lys-Lys-Lys])STEL (also: octa-lysine attached by isopeptide bonds) [fluorescein labeled branched 16-mer peptide RYCK(K)8STEL] gave a K (m(Pep)) of peptide transport into TAPL proteoliposomes, 3 mM ATP, 15 min, 37 °C [5] of 8 µM.

B2: Atto-655 labeled 9-mer peptide RRYC^Atto-655KSTEL (peptide)
peptide: RRYC(Atto‑655 maleimide)KSTEL
notes: source: synthetic peptide (solid phase synthesis)
Molecule B2 has a Kd [6] of 5.4 ± 0.8 µM.

RRYC(5‑iodoacetamidofluorescein)KSTEL [fluorescein labeled 9-mer peptide RRYC^FluoresceinKSTEL] gave a K (m(Pep)) of peptide transport into TAPL proteoliposomes, 3 mM ATP, 15 min, 37 °C [5] of 15 µM, a K (m(pep)) of 9-mer transport into TAPL proteoliposomes in the presence of 3 mM GTP [7] of 4.4 µM and a K (m(Pep)) of 9-mer^FL peptide transport into TAPL proteoliposomes at 24 °C, 3 mM ATP [8] of 10.8 µM. The K (m(Pep)) of 9-mer^FL peptide transport into TAPL proteoliposomes at 33 °C, 3 mM ATP [8] was 15.3 µM and the K (m(Pep)) of 9-mer^FL peptide transport into TAPL proteoliposomes at 42 °C, 3 mM ATP [8] was 17.3 µM.

In the case of RRYQKSTELRRYC(5‑iodoacetamidofluorescein)KSTEL [fluorescein labeled 18-mer peptide …], the K (m(Pep)) of peptide transport into TAPL proteoliposomes, 3 mM ATP, 15 min, 37 °C [5] is reported as 7 µM.
